How the values were obtained:
[1] = target: T1, CD34 molecules in K562 leukemia cells (Homo sapiens, UniProt P28906); experiment: Immunofluorescence co-localisation of CD34 binding polypeptide and CD34 antibodies; details: fixed K562 cells, confocal microscope, FIGS. 3a, 3b
T1 construct: endogenous in cells; host or cells: K562
T1 sequence (P28906 32-385): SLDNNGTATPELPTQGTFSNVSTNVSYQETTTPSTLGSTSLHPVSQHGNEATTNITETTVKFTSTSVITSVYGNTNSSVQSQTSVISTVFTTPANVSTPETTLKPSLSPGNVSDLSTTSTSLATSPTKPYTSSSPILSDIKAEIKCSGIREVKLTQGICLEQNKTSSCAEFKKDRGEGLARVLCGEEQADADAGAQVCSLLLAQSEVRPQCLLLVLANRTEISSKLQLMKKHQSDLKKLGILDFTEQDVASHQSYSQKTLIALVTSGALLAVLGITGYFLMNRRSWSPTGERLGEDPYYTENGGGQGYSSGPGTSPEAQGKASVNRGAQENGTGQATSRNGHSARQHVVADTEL
Procedure: (1) Preparation of cells: incubate K562 cell suspension in an incubator (37° C., 5% CO2). When the cell density reaches 80%, centrifuge and remove the culture solution, wash it once using PBS buffer solution, centrifuge it, take the cell suspension and drop it onto a glass slide coated with polylysine, and use cold acetone to fix for 10 minutes after drying.
(2) Use PBS buffer solution to wash for three times, 5 minutes each time, and then use 5% BSA confining liquid to seal it at room temperature for 1 hour.
(3) Incubation of primary antibodies: drop the primary antibody diluent of CD34 antibodies (AR) onto a slide, incubate it at 4° C. over night. Use PBS buffer solution to wash it for three times, 5 minutes each time.
(4) Incubation of second antibodies and binding to polypeptide: add polypeptides 17 and 19 into diluted anti-rabbit antibodies labeled by Alexa Fluor 561 respectively, drop them onto cover glasses, incubate them at room temperature and keep shielded from light for 1 hour. Use PBS buffer solution to wash for three times, 5 minutes each time.
(5) Use 1 μg/mL DAPI to stain at room temperature and keep shielded from light for 5 minutes, use PBS buffer solution to wash it for three times, 5 minutes each time.
(6) After mounting with anti-fluorescence quenching agent, use laser scanning confocal microscope to observe and photograph.

[2] = target: T2, CD34 molecules of K562 leukemia cells (Homo sapiens, UniProt P28906); experiment: Co-immunoprecipitation of CD34 binding polypeptide, fluorescence intensity by fluorospectrophotometer; details: 2b; for binding of polypeptide to protein co-immunoprecipitated with CD34 antibodies (fluorescence intensity): K562 total protein, CD34 antibody co-immunoprecipitation, NanoDrop 3300, FIGS. 2a
T2 construct: endogenous in cells; host or cells: K562
T2 sequence (P28906 32-385): T1 sequence (P28906 32-385)
Procedure: (1) extracting total protein: wash K562 cell once with pre-cooled PBS buffer solution, remove the PBS, add 500 μL non-denatured protein lysate containing protease inhibitor into the culture dish, collect cells into a 1.5 mL centrifuge tube, perform ultra sonication for 4 times, 4 seconds each time, leave them on the ice for 30 minutes, and centrifuge them at 8000 rpm at 4° C. for 20 minutes, transfer the supernatant into a new centrifuge tube to obtain total protein products;
(2) pretreatment of cellular total protein: add 50 μL confining liquid of normal goat serum into the cellular total protein products, and incubate them on the ice for 1 hour, then add 100 μL G-protein microsphere suspension (Calbiochem), incubate them at 4° C. for 20 minutes, centrifuge and remove the G-protein microsphere.
(3) Co- immunoprecipitation: add CD34 antibodies (AR) into the total protein pretreated in step (2), take it as experimental groups, set control groups, wherein equal amount of PBS antibody diluent is added, and incubate them at 4° C. for 8 hours;
(4) Binding of polypeptides and purification of G-protein antibodies: add polypeptides 17 and 19 into respective experimental groups and control group respectively, meanwhile add G-protein microsphere suspension, and incubate them at 4° C. for 4 hours;
(5) Washing and elution: centrifuge at 4° C. to remove the supernatant, use washing liquor to wash for three times, centrifuge and remove the supernatant, add 2× SDS buffer solution in a volume the same as that of G-protein microsphere, treat them at 50° C. for 10 minutes, centrifuge and remove the microspheres, transfer the supernatant into a new EP tube, and add DTT (dithiothreitol) until the final concentration is 100 mM;
(6) Testing fluorescence intensities of experimental groups and control groups using micro fluorospectro photometer (NanoDrop 3300).

[3] = system: CD34 negative cells (peripheral blood cells); experiment: Magnetic separation, binding to CD34 negative blood cells; assay type: cell-based; details: other blood cells
Procedure: Mix polypeptides 17 and 19 adhering to the surfaces of nano-magnetic beads respectively with K562 cells and peripheral blood cells, and incubate them for 1 hour. Use magnetic sorter to sort, and the sorting efficiency of K562 cells is higher than 95%. […] A schematic diagram of the example is shown in FIG. 5, and the specific operation for magnetic separation of the example can be performed according to conventional magnetic techniques in the art.

[4] = system: ductal epithelial cells and vascular endothelial cells of salivary gland; experiment: Immunofluorescence binding to salivary gland tissue sections; assay type: cell-based, human; details: 2 μg/mL polypeptide, 1 hour, room temperature, 6 μm frozen sections, FIG. 6a
Procedure: In the example, immunofluorescence is used to test the binding between polypeptide and ductal epithelial cells and vascular endothelial cells of salivary gland.
Embed the human salivary gland tissues with OCT, and slice them in a thickness of 6 μm at −20° C., fix with acetone for 15 minutes, use PBS to wash them for three times, 5 minutes each time. Incubate them with 2 μg/mL CD34 binding polypeptide (polypeptide 17) at room temperature for 1 hour, use PBS to wash for three times, 10 minutes each time. Drop 20 μL anti-fluorescence quenching agent for mounting, and preserve them being protected from light at 4° C., fluorescence microscope is used to observe and photograph.

MNNG/HOS cells = experiment: Binding between CD34 binding polypeptide and human osteosarcoma cell line MNNG/HOS; assay type: cell-based; details: 2 μg/ml, 37° C., 2 hours, CD34 negative cell line, fluorescence microscope
Procedure: Add 2 μg/ml polypeptides 17 and 19 into two culture dishes of well-grown MNNG/HOS cells (density of 80%) respectively, incubate them in an incubator at 37° C. for 2 hours, remove the culture solution, use 1 ml PBS to wash them for 3 times, add 5 ml culture solution, and use a fluorescence microscope to observe the binding between polypeptide and MNNG/HOS cells.

K562 cells [5] = experiment: Effect of CD34 binding polypeptide on adhesion of CD34 positive cells; assay type: cell-based; details: 2 μg/mL polypeptide, 6 hours, plates of FN, Collagen I and Mareigel, versus control NC, FIG. 4
Procedure: Add the polypeptides 17 and 19 into incubating holes to set respective experimental groups (final concentration of polypeptide is 2 μg/mL).

K562 cells [6] = experiment: Effect of CD34 binding polypeptide on proliferation of K562 cells; assay type: cell-based; details: 2 μg/ml polypeptide, replenished every 48 hours, counted for 6 days, FIG. 9
Procedure: (1) Inoculate well-grown K562 cells in a 24-hole plate in cell concentration of 6000/ml/hole; set two experimental groups, wherein polypeptides 17 and 19 (polypeptide concentration is 2 μg/ml) are added into culture solutions respectively; set control groups, wherein polypeptide diluent in the same amount of polypeptide is added into the culture solution.
(2) Count once every 24 hours, replenish CD34 binding polypeptide (polypeptide concentration is 2 μg/ml) once every 48 hours, and the counting lasts for 6 days; repeat the experiment three times;
(3) draw cell growth curves, wherein the Y-axis is indicative of mean value of cell density each day, the X-axis is indicative of incubation time.

| Substance | binding to CD34 molecules (overlap of polypeptide green fluorescence and CD34 antibody red fluorescence) [1] | binding of polypeptide to protein co-immunoprecipitated with CD34 antibodies (fluorescence intensity) [2] | binding to CD34 negative cells [3] | binding to ductal epithelial cells and vascular endothelial cells of salivary gland tissue [4] | binding between fluorescent polypeptide and MNNG/HOS cells (MNNG/HOS cells) | adhesion of K562 cells (count of adherent cells) (K562 cells [5]) | proliferation rate of K562 leukemia cells versus control group (K562 cells [6]) | binding specificity, comparison between polypeptides ([2]; co-immunoprecipitation with CD34 antibodies, FIGS. 2a) |
| --- | --- | --- | --- | --- | --- | --- | --- | --- |
| polypeptide 17: synthetic CD34 binding polypeptide displayed by phage 17, amino acid sequence SEQ ID NO: 1 (SSFASKKGYPFNRMCAS; Non-antibody binding protein capable of binding to CD34) | have bound to CD34 molecules | can specifically bind | won't bind to CD34 negative cells | bind to ductal epithelial cells and vascular endothelial cells of salivary gland tissue | No binding | inhibit the adhesion of K562 cells significantly | no significant difference | – |
| polypeptide 19: synthetic CD34 binding polypeptide displayed by phage 19, amino acid sequence SEQ ID NO: 2 (SSLGWWGPRRDFPGRRERIYLGIPWLSLLGSGAPSPV; Non-antibody binding protein capable of binding CD34) | have bound to CD34 molecules | can specifically bind | won't bind to CD34 negative cells | – | No binding | inhibit the adhesion of K562 cells significantly, especially the culture solution containing the polypeptide 19 | no significant difference | better binding specificity than the polypeptide 17 |
